The target of experiment [1] is T1, StrepII-tagged Mesothelin (human mesothelin isoform 2, NP_037536, with C-terminal strepII-tag) (human, UniProt Q13421-1 296-606, limits assumed).
T1 construct: also called Mesothelin-strep; soluble antigen
Description: ELISA of 293T supernatant on coated Mesothelin, normalized to IgG titer and given relative to parental mAb MN. As for the experimental part:
(§1) Antigen-binding analysis by ELISA was performed by coating of Nunc-Immuno MaxiSorp 96-well plates (Thermo Scientific, Waltham, USA) with antigen diluted in coating buffer (100 mM bicarbonate/carbonate buffer) over night at 4° C. For sandwich ELISA, plates were coated with 2 μg/ml AffiniPure F(ab′)2 fragment donkey anti-human IgG (Jackson Immunoresearch, West Grove, USA) diluted in coating buffer over night at 4° C. After coating, plates were washed twice with PBS/0.05% Tween-20 (PBS-T), blocked with PBS-T containing 3% bovine serum albumin (BSA) (Carl Roth, Karlsruhe, Germany) for 1 hour at 37° C. and washed again 5 times with PBS/T. L11 clone supernatants were pre-diluted 3-fold, while supernatants from 293T cells were pre-diluted 50-fold. Parental mAbs diluted to 0.5 μg/ml were used to generate standard curves. 3.5-fold serial dilutions of samples were added and plates were incubated for 1 hour at 37° C. After 5 washes with PBS/T, HRPO-conjugated F(ab)2 anti-human FC-gamma (Jackson Immunoresearch, West Grove, USA) was added at 10′000-fold dilution in PBS/T containing 1% BSA, and plates were incubated for 1 hour at 37° C. Finally, plates were washed 5 times with PBS/T and 50 μl of Sigmafast OPD Peroxidase substrate (Sigma-Aldrich, St. Louis, USA) were added. Reactions were stopped by adding 50 μl of 2M H₂SO₄. Absorption was measured at 490 nm. OD50 values of standards with known concentrations and samples determined by 4-point curve fitting models were used to calculate EC50.
(§2) FIG. 10B Deconvolution and validation of recovered sequences. All possible combinations of VH/VL pairs per clone along with the parental pair as a control were transiently transfected into 293T cells. Cell clones and supernatants were analysed for antigen-binding and IgG titer by ELISA as described in FIG. 4D. Ratios of antigen-binding/IgG titers were determined to obtain antigen binding values normalized to IgG content in supernatants (Meso-binding/IgG). Normalized binding is also shown in relation to parental mAb (binding % of parental).

In experiment [2] the target is T1, StrepII-tagged Mesothelin (human …). Description: SPR (Biacore T200), mAb captured by anti-human Fc-gamma IgG (ligand level 217.8 RU), Mesothelin-strep 10 to 1.25 nM as analyte, 25 °C, 1:1 model; Chi2 0.151 RU2. As for the experimental part: (§3) Table 1. Affinities of parental mouse mAb MN and humanized versions thereof. To evaluate the binding strength (affinity) of the generated humanized monoclonal antibodies (mAbs), and to compare affinites with parental mAbs, surface plasmon resonance (SPR) measurements were conducted, a biophysical method to accurately determine affinity. SPR was performed using a Biacore T200 instrument (GE Healthcare, Buckinghamshire, UK) and data was evaluated using Biacore Evaluation T200 V2.0 software. To capture mAbs, goat a-human Fc-gamma-specific IgG (Jackson ImmunoResearch, #109-005-098) was covalently immobilized on a CMS chip (GE Healthcare, # BR-1005-30).
(§4) Mesothelin-strep was diluted in running buffer using 2-fold serial dilutions ranging from 10 nM to 1.25 nM. Association was measured at a flow of 30 μl/min for 120 s, and dissociation was followed for 1000 s. All measurements were performed at 25° C. All curves were fitted using a 1:1 binding model with RI=0. Regeneration was done for 90 s using 100 mM H3PO4 at a flow of 30 μl/min.
(In general: In SPR one partner is held on a chip, and binding of the other changes the refractive index at the surface.)

For experiment [3] the target is unchanged. Description: ELISA of 293T supernatant on coated Mesothelin, divided by the IgG titer from a sandwich ELISA. As for the experimental part: as §1, §2
(An ELISA detects its analyte on a solid surface through an enzyme-linked reagent.)

For experiment [4] the target is unchanged. Description: SPR (Biacore T200), mAb from 293T supernatant captured by anti-human Fc-gamma IgG, Mesothelin-strep 10 to 1.25 nM as analyte, 25 °C, 1:1 model. As for the experimental part: as §3
FIG. 10C Isoaffinity plot showing association (kₐ) and dissociation constants (kd) as determined by surface plasmon resonance (SPR). The same supernatants as described in (B) were used for the analysis. Diagonal lines represent equal affinities.

The target is the same in experiment [5]. Description: SPR (Biacore T200), mAb captured by anti-human Fc-gamma IgG (ligand level 143.6 RU), Mesothelin-strep 10 to 1.25 nM as analyte, 25 °C, 1:1 model; Chi2 0.100 RU2. As for the experimental part:
as §3, §4

The target is the same in experiment [6]. Briefly: SPR (Biacore T200), mAb captured by anti-human Fc-gamma IgG (ligand level 106.5 RU), Mesothelin-strep 10 to 1.25 nM as analyte, 25 °C, 1:1 model; Chi2 0.052 RU2. As for the experimental part:
as §3, §4

For experiment [7] the target is unchanged. Description: SPR, Biacore T200, mAb captured by anti-human Fc, Mesothelin-strep as analyte.
Experiment [8] has the same target. Description: SPR (Biacore T200), mAb captured by anti-human Fc-gamma IgG (ligand level 90.0 RU), Mesothelin-strep 10 to 1.25 nM as analyte, 25 °C, 1:1 model; Chi2 0.075 RU2. As for the experimental part:
as §3, §4

Residue numbers refer to the chain shown, from its start.

T1 sequence (Q13421 other isoform, or with tags, fused parts or gaps limits assumed): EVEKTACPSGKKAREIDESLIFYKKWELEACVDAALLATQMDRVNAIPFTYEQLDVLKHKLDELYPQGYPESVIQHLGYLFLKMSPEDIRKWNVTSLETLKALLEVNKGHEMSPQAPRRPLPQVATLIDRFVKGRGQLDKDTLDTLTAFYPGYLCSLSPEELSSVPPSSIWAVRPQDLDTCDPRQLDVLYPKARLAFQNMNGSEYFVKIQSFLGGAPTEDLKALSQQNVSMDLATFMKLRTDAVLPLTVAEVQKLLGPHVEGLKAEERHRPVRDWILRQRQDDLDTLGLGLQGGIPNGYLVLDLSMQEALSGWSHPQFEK

B1: huMN5-2 (antibody, V domains shown)
VH: QVQLQQSGAELVKPGASLKLSCKASGYTFTSYWMHWVRQAPGQGLEWIGAIHPNSDNTIYYQKFKSRFTITVDKSTSTAYMQLSSLTSEDTAVYYCAIIITPVVPKFDYWGQGTTVTVSS
VL: DIVMTQSSSFMSASVGDRVSITCKASHDVGTSLAWYQQKPGQSPKLLIYWASTRQTGVPDRFSGSGSGTDFTLTISSVQSEDVATYFCQQYSSYPLTFGQGTKLEIK
notes: No sheet says in words that huMN5a is huMN5-2
For the molecule B1, the “binding (% of parental)” value in experiment [1] was 84.9 % of parental. Further, in experiment [2], the Kd was found to be 176 pM. For the same molecule, in experiment [3], the Meso-binding/IgG turned out to be 0.79. In experiment [4], this molecule showed an equilibrium dissociation constant (Kd) of 176 pM, a koff of 0.000218 s⁻¹ and an on-rate constant (kon) of 1.24e+06 M⁻¹ s⁻¹.

B2: huMN5-3 (antibody, V domains shown)
VH: B1 VH
VL: DIVMTQSPDSLAVSLGERATITCKSSHDVGTSLAWYQQKPGQPPKLLIYWASTRESGVPDRFSGSGSGTDFTLTISSLQAEDVAVYYCQQYSSYPLTFGQGTKLEIK
notes: No sheet says in words that huMN5b is huMN5-3
Regarding B2, in experiment [1], the “binding (% of parental)” value was 82.4 % of parental. This molecule also came in with a dissociation constant (Kd) in experiment [5] of 114 pM. The Meso-binding/IgG in experiment [3] was found to be 0.77. In experiment [4], this molecule displayed a Kd of 114 pM, a koff of 0.000115 s⁻¹ and a kon of 1.01e+06 M⁻¹ s⁻¹.

B3: parental anti-Mesothelin mouse mAb MN, produced as chimeric full-length IgG1 antibody with human constant regions (antibody, V domains shown)
VH: QVQLQQPGAELVKPGASMKLSCKASGYTFTSYWMHWVKQRPGQGLEWIGMIHPNSDNTIYYEKFKSKATLTVDKSSSTAYMQLSSLTSEDSAVYYCAIIITPVVPKFDYWGQGTTLTVSS
VL: DIVMTQSHQFMSTSVGDRVSVTCKASHDVGTSVAWYQQKPGQSPKLLIYWASTRHTGVPDRFTGSGSGTDFTLTISNVQSEDLADYFCQQYSSYPLTFGAGTKLELK
notes: also called VH-MN (parental mouse); parental chimeric antibody
As for B3, the Kd in experiment [6] is 50 pM; in experiment [7] it was 51 pM. Moreover, the “binding (% of parental)” value in experiment [1] was 100 % of parental. Moreover, the Meso-binding/IgG in experiment [3] was found to be 0.94. This molecule also came in with a koff in experiment [4] of 6.81e-05 s⁻¹. The molecule further returned a kon in experiment [4] of 1.31e+06 M⁻¹ s⁻¹.

B4: huMN3-1 (antibody, V domains shown)
VH: B1 VH with L18M, F68V, I70L, T76I
VL: DIQMTQSPSFLSASVGDRVTITCRASHDVGTSLAWYQQKPGQAPKLLIYWASTLQTGVPSRFSGSGSGTEFTLTISSLQPEDFATYYCQQYSSYPLTFGPGTTVDMK
On to B4, for which the “binding (% of parental)” value in experiment [1] was 111 % of parental. For the same molecule, in experiment [3], the Meso-binding/IgG was found to be 1.04. In addition, in experiment [4], the Kd was 193 pM, the koff worked out at 0.000274 s⁻¹ and the kon is 1.42e+06 M⁻¹ s⁻¹. In experiment [8], this molecule came in with a dissociation constant (Kd) of 193 pM.

Broadly, the Kd is the equilibrium constant for the complex coming apart. Low readings indicate tighter binding, high ones weaker binding. Usually koff stands for the rate constant with which the complex falls apart. High values mean fast dissociation, low ones slow dissociation. In general, kon refers to the rate constant with which the complex forms. Read a high kon as fast association.

(Values after patent US20190112385A1 (NBE THERAPEUTICS, published 2019).)
